T1: dog activated Protein C (dog, UniProt Q28278 43-456)
T1 sequence (looked up): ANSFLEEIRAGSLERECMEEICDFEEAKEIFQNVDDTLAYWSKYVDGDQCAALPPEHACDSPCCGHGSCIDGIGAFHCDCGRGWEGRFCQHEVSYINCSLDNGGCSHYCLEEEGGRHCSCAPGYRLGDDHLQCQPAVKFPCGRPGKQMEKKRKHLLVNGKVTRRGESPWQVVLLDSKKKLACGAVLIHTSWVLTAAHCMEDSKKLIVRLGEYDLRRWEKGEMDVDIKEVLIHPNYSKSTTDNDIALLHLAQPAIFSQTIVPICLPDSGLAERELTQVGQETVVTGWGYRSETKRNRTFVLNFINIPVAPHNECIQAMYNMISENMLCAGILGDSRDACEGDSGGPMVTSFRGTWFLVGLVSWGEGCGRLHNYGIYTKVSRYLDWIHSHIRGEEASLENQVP

T2: dog Protein C (zymogen) (dog, UniProt Q28278 43-456)
T2 construct: mature; also called dog PC
T2 sequence (looked up): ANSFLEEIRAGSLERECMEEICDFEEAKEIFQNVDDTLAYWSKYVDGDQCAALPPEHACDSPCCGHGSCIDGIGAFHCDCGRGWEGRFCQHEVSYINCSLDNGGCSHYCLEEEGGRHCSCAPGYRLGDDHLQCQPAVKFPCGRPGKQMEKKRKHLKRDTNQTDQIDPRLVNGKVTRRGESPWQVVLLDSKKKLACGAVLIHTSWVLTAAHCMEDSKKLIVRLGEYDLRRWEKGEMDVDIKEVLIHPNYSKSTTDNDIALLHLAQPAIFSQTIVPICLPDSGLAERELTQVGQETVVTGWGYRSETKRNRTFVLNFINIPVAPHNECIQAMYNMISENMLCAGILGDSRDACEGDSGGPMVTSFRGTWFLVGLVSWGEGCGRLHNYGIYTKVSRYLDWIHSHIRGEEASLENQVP

T3: mouse Protein C (zymogen) (mouse, UniProt P33587 42-460)
T3 construct: mature; also called mouse PC
T3 sequence (looked up): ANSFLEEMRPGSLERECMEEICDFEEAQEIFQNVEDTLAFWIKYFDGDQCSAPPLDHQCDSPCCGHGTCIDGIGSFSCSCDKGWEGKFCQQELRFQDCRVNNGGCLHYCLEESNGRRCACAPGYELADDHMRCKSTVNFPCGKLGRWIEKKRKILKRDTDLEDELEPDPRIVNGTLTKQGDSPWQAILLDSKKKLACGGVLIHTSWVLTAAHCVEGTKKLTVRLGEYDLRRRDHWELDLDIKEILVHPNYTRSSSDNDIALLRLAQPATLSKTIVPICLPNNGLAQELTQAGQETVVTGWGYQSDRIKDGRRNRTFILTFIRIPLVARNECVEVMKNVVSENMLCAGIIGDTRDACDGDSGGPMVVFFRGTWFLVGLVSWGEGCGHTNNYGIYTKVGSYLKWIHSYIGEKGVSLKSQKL


Assays:
[1] = target: rabbit activated Protein C (rabbit) (UniProt Q28661); experiment: cell-based or functional assay
dog activated Protein C [2] = target: T1, dog activated Protein C; experiment: cell-based or functional assay
[3] = target: rabbit activated Protein C (rabbit) (UniProt Q28661); experiment: ELISA, hIgG1
dog activated Protein C [4] = target: T1, dog activated Protein C; experiment: ELISA, hIgG1
[5] = target: rabbit activated Protein C (rabbit) (UniProt Q28661); experiment: direct ELISA, aPC coated, hIgG1
dog Protein C (zymogen) [6] = target: T2, dog Protein C (zymogen); experiment: direct ELISA, antigen coated
dog activated Protein C [7] = target: T1, dog activated Protein C; experiment: direct ELISA, aPC coated, hIgG1
[8] = target: T4, human Protein C (zymogen) (human, UniProt P04070 43-461); experiment: direct ELISA, antigen coated at 100 ng/well, Fab at 20 nM (1 ug/ml), anti-human Fab-HRP, AmplexRed (RFU)
T4 construct: also called human PC; hPC
Protocol: FIG. 3 depicts a graph characterizing anti-APC Fabs by direct ELISA. An ELISA plate was coated with human PC (hPC), human aPC (hAPC), dog aPC (dAPC), mouse aPC (mAPC) at 100 ng per well. Purified Fabs designate on the X-axis were added to the plate at 20 nM (1 ug/ml). Bound Fab was detected by the secondary antibody (anti-human Fab-HRP) followed by HRP substrate AmplexRed. The purified Fabs preferentially bind to human aPC and, with the exception of Fab R41C17, show little to no binding to human PC.
Antigens were coated directly on ELISA plates. Coating antigens included human PC (plasma-derived), human aPC (recombinant), dog aPC (plasma-derived), and mouse aPC (recombinant) at 100 ng/well in PBS/Ca buffer. After blocking the plate with 5% milk/PBS and washing the plate with PBS-Tween20, soluble Fabs (1 ug/ml, 20 nM) were added to the plate and incubated for 1 h at RT with shaking. Fab binding was detected with anti-human Fab (lambda) antibody-HRP and Amplex red as substrate. […] In contrast, R41C17 binds to both human APC and human PC. Also shown in FIG. 3 is cross-species reactivity of Fabs by ELISA.

[9] = target: T3, mouse Protein C (zymogen); experiment: direct ELISA, mPC coated at 10 ug/ml, Fab at 20 nM, anti-human Fab-HRP, AmplexRed (RFU)
Protocol: (§1) To determine the binding selectivity of these fabs, their binding activities to the proenzyme human PC, to thrombin (FIIa), and to the activated Factor II (FIIa, thrombin), Factor VII (FVIIa), Factor IX (FIXa), and Factor X (FXa) were also assessed by ELISA. Briefly, an ELISA plate was coated with human aPC at 1 ug/ml, mouse PC at 10 ug/ml, dog PC at 10 ug/ml, other coagulation factors (FIIa, FVIIa, FIXa, FXa) at 5-10 ug/ml. Anti-aPC Fabs were added to the wells at 20 nM (1 ug/ml). Bound Fabs were detected by the secondary antibody (anti-human Fab-HRP) followed by HRP substrate AmplexRed.

dog Protein C (zymogen) [10] = target: T2, dog Protein C (zymogen); experiment: direct ELISA, dPC coated at 10 ug/ml, Fab at 20 nM, anti-human Fab-HRP, AmplexRed (RFU)
Protocol: as §1

dog activated Protein C [11] = target: T1, dog activated Protein C; experiment: Biacore, Fab
[12] = target: T5, human activated Protein C (human, UniProt P04070 43-461); experiment: Biacore, Fab
T5 construct: also called human aPC; hAPC

dog activated Protein C [13] = target: T1, dog activated Protein C; experiment: direct ELISA, antigen coated, Fab
[14] = target: T5, human activated Protein C; experiment: direct ELISA, antigen coated, Fab
[15] = target: T5, human activated Protein C; experiment: cell-based or functional assay
[16] = target: T5, human activated Protein C; experiment: ELISA, hIgG1
[17] = target: T4, human Protein C (zymogen); experiment: direct ELISA, antigen coated at 1 ug/ml, IgG at 20 nM, anti-human IgG-HRP, AmplexRed (RFU)
[18] = target: T5, human activated Protein C; experiment: direct ELISA, aPC coated, hIgG1
[19] = target: T5, human activated Protein C; experiment: cell-based or functional assay; remark: listed apart in the source
[20] = target: T5, human activated Protein C; experiment: cell-based or functional assay; remark: listed apart in the source

| Binder | Anti-aPC IC50 (nM), Amidolytic activity [1] [nM] | Anti-aPC IC50 (nM), Amidolytic activity (dog activated Protein C [2]) [nM] | EC50 [3] [nM] | EC50 (dog activated Protein C [4]) [nM] | EC50 [5] [nM] | binding result (dog Protein C (zymogen) [6]) | EC50 (dog activated Protein C [7]) [nM] | Anti-aPC IC50 (nM), Amidolytic activity [15] [nM] | EC50 [16] [nM] | EC50 [18] [nM] | also measured |
| --- | --- | --- | --- | --- | --- | --- | --- | --- | --- | --- | --- |
| C7A23 hIgG1 (antibody, V domains shown, also called C7A23-IgG) VH: EVQLLESGGGLVQPGGSLRLSCAASGFTFGNHWMTWVRQAPGKGLEWVSGVSWNGSRTHYADSVKGRFTISRDNSKNTLYLQMNSLRAEDTAVYYCALTGRSGWMRFPNWFDPWGQGTLVTVTS VL: QSVLTQPPSASGTPGQRVTISCSGSSSNIGNNYVSWYQQLPGTAPKLLIYRNNQRPSGVPDRFSGSKSGTSASLAISGLRSEDEADYYCQSYDSDLSGPYVLFGGGTKLTVLG | 25 | 49 | 7 | 10.9 | 7 | no binding | 10.9 |  |  |  |  |
| C7I7 Fab (Fab, V domains shown, Human Fab (lambda) from a phage library, expressed in E. coli; also called C717) VH: EVQLLESGGGLVQPGGSLRLSCAASGFTFGNHWMTWVRQAPGKGLEWVSGVSWNGSRTHYADSVKGRFTISRDNSKNTLYLQMNSLRAEDTAVYYCALTGRSGWMRFPNWFDPWGQGTLVTVTS VL: QSVLTQPPSASGTPGQRVTISCTGSSSNIGAGYDVHWYQQLPGTAPKLLIYGNSNRPSGVPDRFSGSKSGTSASLAISGLRSEDEAAYYCSSYVGSDLVVFGGGTKLTVLG |  |  |  |  |  |  |  |  |  |  | binding result [8]: no binding (tested: 20 nM); binding result [9]: no binding (tested: 20 nM); binding result (dog Protein C (zymogen) [10]): no binding (tested: 20 nM); Kd (dog activated Protein C [11]): 1.3 nM; Kd [12]: 1.3 nM; EC50 (dog activated Protein C [13]): 3.9 nM; EC50 [14]: 6.3 nM |
| C25K23 Fab (Fab, V domains shown, Human Fab (lambda) from a phage library, expressed in E. coli; also called Fab C25K23) VH: EVQLLESGGGLVQPGGSLRLSCAASGFTFSSYWMSWVRQAPGKGLEWVSGVSWNGSRTHYADSVKGRFTISRDNSKNTLYLQMNSLRAEDTAVYYCALTGRSGWMRFPNWFDPWGQGTLVTVTS VL: QSVLTQPPSASGTPGQRVTISCTGSSSNIGAAYDVHWYQQLPGTAPKLLIYGNNKRPSGVPDRFSGSKSGTSASLAISGLRSEDEADYYCQSYDSSLSGSVFGGGTKLTVLG |  |  |  |  |  |  |  |  |  |  | binding result [8]: no binding (tested: 20 nM); binding result [9]: no binding (tested: 20 nM); binding result (dog Protein C (zymogen) [10]): no binding (tested: 20 nM); Kd (dog activated Protein C [11]): 5.2 nM; Kd [12]: 2 nM; EC50 (dog activated Protein C [13]): 8.2 nM; EC50 [14]: 4.3 nM |
| C25K23 IgG1 (antibody, V domains shown, the claims call them variable regions; also called C25K23 hIgG; C25K23 hIgG1) VH: EVQLLESGGGLVQPGGSLRLSCAASGFTFSSYWMSWVRQAPGKGLEWVSGVSWNGSRTHYADSVKGRFTISRDNSKNTLYLQMNSLRAEDTAVYYCALTGRSGWMRFPNWFDPWGQGTLVTVSS VL: QSVLTQPPSASGTPGQRVTISCTGSSSNIGAAYDVHWYQQLPGTAPKLLIYGNNKRPSGVPDRFSGSKSGTSASLAISGLRSEDEADYYCQSYDSSLSGSVFGGGTKLTVLG |  | 692 |  | 3.4 |  | no binding | 3.4 | 131 | 1.2 | 1.25 | binding result [17]: no binding (tested: 20 nM) |
| C7I7 hIgG1 (antibody, V domains shown, also called C717-IgG) VH: EVQLLESGGGLVQPGGSLRLSCAASGFTFGNHWMTWVRQAPGKGLEWVSGVSWNGSRTHYADSVKGRFTISRDNSKNTLYLQMNSLRAEDTAVYYCALTGRSGWMRFPNWFDPWGQGTLVTVTS VL: QSVLTQPPSASGTPGQRVTISCTGSSSNIGAGYDVHWYQQLPGTAPKLLIYGNSNRPSGVPDRFSGSKSGTSASLAISGLRSEDEAAYYCSSYVGSDLVVFGGGTKLTVLG | 29 | 147 | 2 | 2.3 | 2 | no binding | 2.3 | 64 | 2.7 | 2.66 | binding result [17]: no binding (tested: 20 nM); aPTT, inhibition of aPC activity at 1 ug/ml IgG (1:1 molar ratio) [19]: ~50% |
| Variant 2312 (modified C25K23 IgG) (antibody, V domains shown) VH: EVQLLESGGGLVQPGGSLRLSCAASGFTFSSYWMSWVRQAPGKGLEWVSGVSWNGARTHYADSVKGRFTISRDNSKNTLYLQMNSLRAEDTAVYYCALTGRSGWMRFPNWFDPWGQGTLVTVSS VL: QSVLTQPPSVSGAPGQRVTISCTGSSSNIGAAYDVHWYQQLPGTAPKLLIYGNNKRPSGVPDRFSGSKSGTSASLAITGLQAEDEADYYCQSYDSSLSGSVFGGGTKLTVLG |  |  |  |  |  |  |  |  |  |  | IC50 (read off the curve), amidolytic activity of human aPC [b] [20]: ~10 nM |
| C22J13 hIgG1 (antibody, V domains shown) VH: EVQLLESGGGLVQPGGSLRLSCAASGFTFSSNYMSWVRQAPGKGLEWVAVISYDGSNKYYADSVKGRFTISRDNSKNTLYLQMNSLRAEDTAMYYCALTGRSGWMRFPNWFDPWGQGTLVTVTS VL: QSVLTQPPSASGTPGQRVTISCSGSDSNIGSNAVNWYQQLPGTAPKLLIYDNNKRPSGVPDRFSGSKSGTSASLAISGLRSEDEADYYCSSYTSSNTVVFGGGTKLTVLG | 24 |  | 0.6 |  | 0.6 |  |  | 27 | 0.5 | 0.49 |  |
